B1: corin: N567Q (protein)
parent chain: MKQSPALAPEERCRRAGSPKPVLRADDNNMGNGCSQKLATANLLRFLLLVLIPCICALVLLLVILLSYVGTLQKVYFKSNGSEPLVTDGEIQGSDVILTNTIYNQSTVVSTAHPDQHVPAWTTDASLPGDQSHRNTSACMNITHSQCQMLPYHATLTPLLSVVRNMEMEKFLKFFTYLHRLSCYQHIMLFGCTLAFPECIIDGDDSHGLLPCRSFCEAAKEGCESVLGMVNYSWPDFLRCSQFRNQTESSNVSRICFSPQQENGKQLLCGRGENFLCASGICIPGKLQCNGYNDCDDWSDEAHCNCSENLFHCHTGKCLNYSLVCDGYDDCGDLSDEQNCDCNPTTEHRCGDGRCIAMEWVCDGDHDCVDKSDEVNCSCHSQGLVECRNGQCIPSTFQCDGDEDCKDGSDEENCSVIQTSCQEGDQRCLYNPCLDSCGGSSLCDPNNSLNNCSQCEPITLELCMNLPYNSTSYPNYFGHRTQKEASISWESSLFPALVQTNCYKYLMFFSCTILVPKCDVNTGEHIPPCRALCEHSKERCESVLGIVGLQWPEDTDCSQFPEENSDNQTCLMPDEYVEECSPSHFKCRSGQCVLASRRCDGQADCDDDSDEENCGCKERDLWECPSNKQCLKHTVICDGFPDCPDYMDEKNCSFCQDDELECANHACVSRDLWCDGEADCSDSSDEWDCVTLSINVNSSSFLMVHRAATEHHVCADGWQEILSQLACKQMGLGEPSVTKLIQEQEKEPRWLTLHSNWESLNGTTLHELLVNGQSCESRSKISLLCTKQDCGRRPAARMNKRILGGRTSRPGRWPWQCSLQSEPSGHICGCVLIAKKWVLTVAHCFEGRENAAVWKVVLGINNLDHPSVFMQTRFVKTIILHPRYSRAVVDYDISIVELSEDISETGYVRPVCLPNPEQWLEPDTYCYITGWGHMGNKMPFKLQEGEVRIISLEHCQSYFDMKTITTRMICAGYESGTVDSCMGDSGGPLVCEKPGGRWTLFGLTSWGSVCFSKVLGPGVYSNVSYFVEWIKRQIYIQTFLLN
B2: corin: N651Q (protein)
parent chain: MKQSPALAPEERCRRAGSPKPVLRADDNNMGNGCSQKLATANLLRFLLLVLIPCICALVLLLVILLSYVGTLQKVYFKSNGSEPLVTDGEIQGSDVILTNTIYNQSTVVSTAHPDQHVPAWTTDASLPGDQSHRNTSACMNITHSQCQMLPYHATLTPLLSVVRNMEMEKFLKFFTYLHRLSCYQHIMLFGCTLAFPECIIDGDDSHGLLPCRSFCEAAKEGCESVLGMVNYSWPDFLRCSQFRNQTESSNVSRICFSPQQENGKQLLCGRGENFLCASGICIPGKLQCNGYNDCDDWSDEAHCNCSENLFHCHTGKCLNYSLVCDGYDDCGDLSDEQNCDCNPTTEHRCGDGRCIAMEWVCDGDHDCVDKSDEVNCSCHSQGLVECRNGQCIPSTFQCDGDEDCKDGSDEENCSVIQTSCQEGDQRCLYNPCLDSCGGSSLCDPNNSLNNCSQCEPITLELCMNLPYNSTSYPNYFGHRTQKEASISWESSLFPALVQTNCYKYLMFFSCTILVPKCDVNTGEHIPPCRALCEHSKERCESVLGIVGLQWPEDTDCSQFPEENSDNQTCLMPDEYVEECSPSHFKCRSGQCVLASRRCDGQADCDDDSDEENCGCKERDLWECPSNKQCLKHTVICDGFPDCPDYMDEKNCSFCQDDELECANHACVSRDLWCDGEADCSDSSDEWDCVTLSINVNSSSFLMVHRAATEHHVCADGWQEILSQLACKQMGLGEPSVTKLIQEQEKEPRWLTLHSNWESLNGTTLHELLVNGQSCESRSKISLLCTKQDCGRRPAARMNKRILGGRTSRPGRWPWQCSLQSEPSGHICGCVLIAKKWVLTVAHCFEGRENAAVWKVVLGINNLDHPSVFMQTRFVKTIILHPRYSRAVVDYDISIVELSEDISETGYVRPVCLPNPEQWLEPDTYCYITGWGHMGNKMPFKLQEGEVRIISLEHCQSYFDMKTITTRMICAGYESGTVDSCMGDSGGPLVCEKPGGRWTLFGLTSWGSVCFSKVLGPGVYSNVSYFVEWIKRQIYIQTFLLN
B3: corin: N697Q (protein)
parent chain: MKQSPALAPEERCRRAGSPKPVLRADDNNMGNGCSQKLATANLLRFLLLVLIPCICALVLLLVILLSYVGTLQKVYFKSNGSEPLVTDGEIQGSDVILTNTIYNQSTVVSTAHPDQHVPAWTTDASLPGDQSHRNTSACMNITHSQCQMLPYHATLTPLLSVVRNMEMEKFLKFFTYLHRLSCYQHIMLFGCTLAFPECIIDGDDSHGLLPCRSFCEAAKEGCESVLGMVNYSWPDFLRCSQFRNQTESSNVSRICFSPQQENGKQLLCGRGENFLCASGICIPGKLQCNGYNDCDDWSDEAHCNCSENLFHCHTGKCLNYSLVCDGYDDCGDLSDEQNCDCNPTTEHRCGDGRCIAMEWVCDGDHDCVDKSDEVNCSCHSQGLVECRNGQCIPSTFQCDGDEDCKDGSDEENCSVIQTSCQEGDQRCLYNPCLDSCGGSSLCDPNNSLNNCSQCEPITLELCMNLPYNSTSYPNYFGHRTQKEASISWESSLFPALVQTNCYKYLMFFSCTILVPKCDVNTGEHIPPCRALCEHSKERCESVLGIVGLQWPEDTDCSQFPEENSDNQTCLMPDEYVEECSPSHFKCRSGQCVLASRRCDGQADCDDDSDEENCGCKERDLWECPSNKQCLKHTVICDGFPDCPDYMDEKNCSFCQDDELECANHACVSRDLWCDGEADCSDSSDEWDCVTLSINVNSSSFLMVHRAATEHHVCADGWQEILSQLACKQMGLGEPSVTKLIQEQEKEPRWLTLHSNWESLNGTTLHELLVNGQSCESRSKISLLCTKQDCGRRPAARMNKRILGGRTSRPGRWPWQCSLQSEPSGHICGCVLIAKKWVLTVAHCFEGRENAAVWKVVLGINNLDHPSVFMQTRFVKTIILHPRYSRAVVDYDISIVELSEDISETGYVRPVCLPNPEQWLEPDTYCYITGWGHMGNKMPFKLQEGEVRIISLEHCQSYFDMKTITTRMICAGYESGTVDSCMGDSGGPLVCEKPGGRWTLFGLTSWGSVCFSKVLGPGVYSNVSYFVEWIKRQIYIQTFLLN
B4: corin: N761Q (protein)
parent chain: MKQSPALAPEERCRRAGSPKPVLRADDNNMGNGCSQKLATANLLRFLLLVLIPCICALVLLLVILLSYVGTLQKVYFKSNGSEPLVTDGEIQGSDVILTNTIYNQSTVVSTAHPDQHVPAWTTDASLPGDQSHRNTSACMNITHSQCQMLPYHATLTPLLSVVRNMEMEKFLKFFTYLHRLSCYQHIMLFGCTLAFPECIIDGDDSHGLLPCRSFCEAAKEGCESVLGMVNYSWPDFLRCSQFRNQTESSNVSRICFSPQQENGKQLLCGRGENFLCASGICIPGKLQCNGYNDCDDWSDEAHCNCSENLFHCHTGKCLNYSLVCDGYDDCGDLSDEQNCDCNPTTEHRCGDGRCIAMEWVCDGDHDCVDKSDEVNCSCHSQGLVECRNGQCIPSTFQCDGDEDCKDGSDEENCSVIQTSCQEGDQRCLYNPCLDSCGGSSLCDPNNSLNNCSQCEPITLELCMNLPYNSTSYPNYFGHRTQKEASISWESSLFPALVQTNCYKYLMFFSCTILVPKCDVNTGEHIPPCRALCEHSKERCESVLGIVGLQWPEDTDCSQFPEENSDNQTCLMPDEYVEECSPSHFKCRSGQCVLASRRCDGQADCDDDSDEENCGCKERDLWECPSNKQCLKHTVICDGFPDCPDYMDEKNCSFCQDDELECANHACVSRDLWCDGEADCSDSSDEWDCVTLSINVNSSSFLMVHRAATEHHVCADGWQEILSQLACKQMGLGEPSVTKLIQEQEKEPRWLTLHSNWESLNGTTLHELLVNGQSCESRSKISLLCTKQDCGRRPAARMNKRILGGRTSRPGRWPWQCSLQSEPSGHICGCVLIAKKWVLTVAHCFEGRENAAVWKVVLGINNLDHPSVFMQTRFVKTIILHPRYSRAVVDYDISIVELSEDISETGYVRPVCLPNPEQWLEPDTYCYITGWGHMGNKMPFKLQEGEVRIISLEHCQSYFDMKTITTRMICAGYESGTVDSCMGDSGGPLVCEKPGGRWTLFGLTSWGSVCFSKVLGPGVYSNVSYFVEWIKRQIYIQTFLLN
B5: corin: N1022Q (protein)
parent chain: MKQSPALAPEERCRRAGSPKPVLRADDNNMGNGCSQKLATANLLRFLLLVLIPCICALVLLLVILLSYVGTLQKVYFKSNGSEPLVTDGEIQGSDVILTNTIYNQSTVVSTAHPDQHVPAWTTDASLPGDQSHRNTSACMNITHSQCQMLPYHATLTPLLSVVRNMEMEKFLKFFTYLHRLSCYQHIMLFGCTLAFPECIIDGDDSHGLLPCRSFCEAAKEGCESVLGMVNYSWPDFLRCSQFRNQTESSNVSRICFSPQQENGKQLLCGRGENFLCASGICIPGKLQCNGYNDCDDWSDEAHCNCSENLFHCHTGKCLNYSLVCDGYDDCGDLSDEQNCDCNPTTEHRCGDGRCIAMEWVCDGDHDCVDKSDEVNCSCHSQGLVECRNGQCIPSTFQCDGDEDCKDGSDEENCSVIQTSCQEGDQRCLYNPCLDSCGGSSLCDPNNSLNNCSQCEPITLELCMNLPYNSTSYPNYFGHRTQKEASISWESSLFPALVQTNCYKYLMFFSCTILVPKCDVNTGEHIPPCRALCEHSKERCESVLGIVGLQWPEDTDCSQFPEENSDNQTCLMPDEYVEECSPSHFKCRSGQCVLASRRCDGQADCDDDSDEENCGCKERDLWECPSNKQCLKHTVICDGFPDCPDYMDEKNCSFCQDDELECANHACVSRDLWCDGEADCSDSSDEWDCVTLSINVNSSSFLMVHRAATEHHVCADGWQEILSQLACKQMGLGEPSVTKLIQEQEKEPRWLTLHSNWESLNGTTLHELLVNGQSCESRSKISLLCTKQDCGRRPAARMNKRILGGRTSRPGRWPWQCSLQSEPSGHICGCVLIAKKWVLTVAHCFEGRENAAVWKVVLGINNLDHPSVFMQTRFVKTIILHPRYSRAVVDYDISIVELSEDISETGYVRPVCLPNPEQWLEPDTYCYITGWGHMGNKMPFKLQEGEVRIISLEHCQSYFDMKTITTRMICAGYESGTVDSCMGDSGGPLVCEKPGGRWTLFGLTSWGSVCFSKVLGPGVYSNVSYFVEWIKRQIYIQTFLLN

Test: immunostaining, confocal microscopy, FBL/FTotal ratio in polarized MDCK cells
Settings: glycan lost; control: corin WT

Protein	localisation_or_trafficking
B1	no change
B2	no change
B3	no change
B4	no change
B5	no change
